Laboratory results taken from patent US20030108958A1.

Target: AK155 receptor complex (IL-20R1 and IL-10R2), endogenous on human cell lines (human) (UniProt Q9UHF4)
Experiment: cell-based or functional assay

Sequence of AK155 receptor complex (IL-20R1 and IL-10R2), endogenous on human cell lines (human) (Q9UHF4 30-553 V259I/L382F limits assumed, chain 1 of 2): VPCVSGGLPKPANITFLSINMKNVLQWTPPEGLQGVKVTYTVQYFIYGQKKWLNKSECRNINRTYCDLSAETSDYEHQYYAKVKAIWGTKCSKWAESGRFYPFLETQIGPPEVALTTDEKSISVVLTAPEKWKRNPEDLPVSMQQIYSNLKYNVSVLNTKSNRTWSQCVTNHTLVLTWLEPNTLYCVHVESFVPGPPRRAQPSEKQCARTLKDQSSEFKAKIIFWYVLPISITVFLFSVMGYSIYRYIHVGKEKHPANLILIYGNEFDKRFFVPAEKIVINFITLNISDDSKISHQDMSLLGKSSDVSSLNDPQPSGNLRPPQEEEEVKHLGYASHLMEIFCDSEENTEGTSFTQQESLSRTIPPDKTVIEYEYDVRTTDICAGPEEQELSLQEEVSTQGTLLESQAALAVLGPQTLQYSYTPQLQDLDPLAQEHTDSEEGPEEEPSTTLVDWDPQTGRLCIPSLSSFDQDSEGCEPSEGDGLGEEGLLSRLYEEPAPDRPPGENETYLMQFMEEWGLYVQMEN
Sequence of AK155 receptor complex (IL-20R1 and IL-10R2), endogenous on human cell lines (human) (chain, as listed by the source limits assumed, chain 2 of 2): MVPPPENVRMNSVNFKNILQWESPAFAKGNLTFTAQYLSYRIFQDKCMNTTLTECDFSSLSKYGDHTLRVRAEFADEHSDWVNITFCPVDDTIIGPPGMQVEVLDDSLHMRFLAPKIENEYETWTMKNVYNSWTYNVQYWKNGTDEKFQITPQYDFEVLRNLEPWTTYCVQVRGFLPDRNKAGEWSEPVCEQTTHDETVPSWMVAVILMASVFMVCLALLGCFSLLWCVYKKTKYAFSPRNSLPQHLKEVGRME

IL-8 in supernatant of Colo-205 cells (ELISA), 24 h, with AK155 (without AK155: 552): 670 pg/mL
IL-8 in supernatant of Colo-205 cells (ELISA), 48 h, with AK155 (without AK155: 623): 989 pg/mL
IL-10 in supernatant of Colo-205 cells (ELISA), 24 h, with AK155 (without AK155: 61): 112 pg/mL
IL-10 in supernatant of Colo-205 cells (ELISA), 48 h, with AK155 (without AK155: 60): 94 pg/mL
Substance: AK155 (from UniProt Q9NPH9 22-171) (ligand)
